From the supplement of paper PMC9112550, “Optimization of the antimicrobial peptide Bac7 by deep mutational scanning” (BMC Biology, 2022) come the findings set out here.
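Further: peptides expressed intracellularly from a pBAD plasmid library in pooled LB shake-flask culture, induced with 0.3% L-arabinose, DNA abundance read by NGS, three biological replicates, DESeq2 with apeglm shrinkage.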

For this data set, the system named is Escherichia coli TOP10. Briefly: shrunken log2 fold change of peptide-encoding DNA abundance (4.5 h post-induction vs induction); higher = less antimicrobial activity (less host growth inhibition). The note with it: time post-induction: 4.5 h; library: site-saturation at positions 5, 18, 19, 20.
With RRIRMRPPRLPRPRPRPQIRPRP, the “shrunken log2 fold change” value is -0.0442.

Take RRIRHRPPRLPRPRPRPIYCPRP: the “shrunken log2 fold change” value was -0.0143. With RRIRCRPPRLPRPRPRPTCQPRP the figure was 0.00203. In the case of RRIRHRPPRLPRPRPRPFEHPRP, the “shrunken log2 fold change” value is -0.0952. As for RRIRARPPRLPRPRPRPKNIPRP, the figure is -0.127; as for RRIRQRPPRLPRPRPRPKCCPRP, -0.113. As for RRIRHRPPRLPRPRPRPENWPRP, the figure is 0.147. With RRIRDRPPRLPRPRPRPHWWPRP the figure was 0.272.

For the sequence RRIRNRPPRLPRPRPRPKHCPRP, the “shrunken log2 fold change” value is -0.111.

Turning to RRIRQRPPRLPRPRPRPEIKPRP, the “shrunken log2 fold change” value was -0.342. As for RRIRERPPRLPRPRPRPPMMPRP, the figure is -0.0743; as for RRIRMRPPRLPRPRPRPGFPPRP, 0.446. On to RRIRERPPRLPRPRPRPIDPPRP, for which the “shrunken log2 fold change” value was determined as 0.0954.

For RRIRARPPRLPRPRPRPNKLPRP, the “shrunken log2 fold change” value was -0.206.

As to RRIRIRPPRLPRPRPRPLEQPRP, the “shrunken log2 fold change” value was -0.419. With RRIRFRPPRLPRPRPRPKAPPRP the figure was 0.453; with RRIRFRPPRLPRPRPRPPMMPRP, -0.0466. As for RRIRYRPPRLPRPRPRPTAIPRP, the figure is -0.774.

Take RRIRYRPPRLPRPRPRPVGVPRP: the “shrunken log2 fold change” value is -0.0394.

Take RRIRWRPPRLPRPRPRPMKEPRP: the “shrunken log2 fold change” value was -0.23. With RRIRHRPPRLPRPRPRPLWQPRP, the “shrunken log2 fold change” value is -0.145. Consider RRIRIRPPRLPRPRPRPDESPRP, for which the “shrunken log2 fold change” value is -0.172.

Consider RRIRVRPPRLPRPRPRPYIAPRP, for which the “shrunken log2 fold change” value was -0.608. As for RRIRIRPPRLPRPRPRPTMDPRP, the figure is -0.118; as for RRIRVRPPRLPRPRPRPGCTPRP, -0.246.

Consider RRIRMRPPRLPRPRPRPYWGPRP, for which the “shrunken log2 fold change” value is -0.0296. As for RRIRQRPPRLPRPRPRPCERPRP, the figure is -0.0133; as for RRIRHRPPRLPRPRPRPDQCPRP, -0.000823; as for RRIRVRPPRLPRPRPRPKWKPRP, -0.0377.

For the sequence RRIRPRPPRLPRPRPRPRRCPRP, the “shrunken log2 fold change” value stood at 0.388.

In the case of RRIRWRPPRLPRPRPRPKKPPRP, the “shrunken log2 fold change” value was found to be 0.558.

In the case of RRIRERPPRLPRPRPRPSWTPRP, the “shrunken log2 fold change” value was -0.833. As for RRIRIRPPRLPRPRPRPLWIPRP, the figure is -0.445; as for RRIRTRPPRLPRPRPRPVPRPRP, 0.315; as for RRIRRRPPRLPRPRPRPFCAPRP, 0.488. With RRIRIRPPRLPRPRPRPVNTPRP the figure was -1.06. Turning to RRIRRRPPRLPRPRPRPHDMPRP, the “shrunken log2 fold change” value was -0.103. As for RRIRIRPPRLPRPRPRPEDPPRP, the figure is 0.0426; as for RRIRSRPPRLPRPRPRPQEAPRP, -0.0452. As for RRIRPRPPRLPRPRPRPYVTPRP, the figure is -0.239; as for RRIRFRPPRLPRPRPRPSACPRP, 0.0977. RRIRNRPPRLPRPRPRPCCSPRP: the “shrunken log2 fold change” value was -0.0427. Consider RRIRNRPPRLPRPRPRPKPLPRP, for which the “shrunken log2 fold change” value is -0.102. With RRIRDRPPRLPRPRPRPTAKPRP the figure was -0.00144.

RRIRGRPPRLPRPRPRPVVCPRP: the “shrunken log2 fold change” value worked out at 0.812. RRIRDRPPRLPRPRPRPWARPRP: the “shrunken log2 fold change” value is -0.0626.

As to RRIRRRPPRLPRPRPRPAWYPRP, the “shrunken log2 fold change” value turned out to be 0.176. As for RRIRRRPPRLPRPRPRPKVYPRP, the figure is -0.0919; as for RRIRDRPPRLPRPRPRPCQCPRP, -0.017. As for RRIRDRPPRLPRPRPRPGYTPRP, the figure is -0.127; as for RRIRGRPPRLPRPRPRPWKKPRP, -0.00973; as for RRIRMRPPRLPRPRPRPRRCPRP, 1.08. As for RRIRYRPPRLPRPRPRPQPSPRP, the figure is 0.0385; as for RRIRDRPPRLPRPRPRPYFFPRP, -0.287; as for RRIRQRPPRLPRPRPRPSGEPRP, 0.0168.

RRIRNRPPRLPRPRPRPFMPPRP: the “shrunken log2 fold change” value is -0.209.

In the case of RRIRCRPPRLPRPRPRPDAVPRP, the “shrunken log2 fold change” value amounted to 0.0365. As for RRIRPRPPRLPRPRPRPNRSPRP, the figure is 0.16; as for RRIRNRPPRLPRPRPRPWLPPRP, -0.0828. In the case of RRIRVRPPRLPRPRPRPFSFPRP, the “shrunken log2 fold change” value came out at 1.26. With RRIRHRPPRLPRPRPRPKPFPRP the figure was 0.0272; with RRIRTRPPRLPRPRPRPACGPRP, 0.282; with RRIRRRPPRLPRPRPRPKWYPRP, 0.0824. As for RRIRFRPPRLPRPRPRPNKSPRP, the figure is -0.67; as for RRIRDRPPRLPRPRPRPYHQPRP, -0.0205.

On to RRIRSRPPRLPRPRPRPSTGPRP, for which the “shrunken log2 fold change” value was -0.417. With RRIRGRPPRLPRPRPRPKHHPRP the figure was 0.309. With RRIRVRPPRLPRPRPRPVNAPRP the figure was -0.0836; with RRIRARPPRLPRPRPRPRKCPRP, 0.154. For the sequence RRIRTRPPRLPRPRPRPNPNPRP, the “shrunken log2 fold change” value was -0.306. With RRIRRRPPRLPRPRPRPANWPRP the figure was 0.387; with RRIRHRPPRLPRPRPRPEMKPRP, -0.0143; with RRIRCRPPRLPRPRPRPQKKPRP, -0.0243.

On to RRIRNRPPRLPRPRPRPVPCPRP, for which the “shrunken log2 fold change” value was -0.237. As for RRIRGRPPRLPRPRPRPDPIPRP, the figure is 0.126.

With RRIRHRPPRLPRPRPRPTMSPRP, the “shrunken log2 fold change” value was -0.11. As for RRIRWRPPRLPRPRPRPRMEPRP, the “shrunken log2 fold change” value was determined as 0.439. On to RRIRDRPPRLPRPRPRPSYAPRP, for which the “shrunken log2 fold change” value was -0.0918. As to RRIRTRPPRLPRPRPRPCYKPRP, the “shrunken log2 fold change” value is -0.06. With RRIRMRPPRLPRPRPRPLERPRP the figure was 0.00972. With RRIRPRPPRLPRPRPRPSHRPRP the figure was 0.0628; with RRIRKRPPRLPRPRPRPTSVPRP, 0.0245; with RRIRHRPPRLPRPRPRPIDLPRP, 0.036.

On to RRIRLRPPRLPRPRPRPNWNPRP, for which the “shrunken log2 fold change” value was -0.386.

For the sequence RRIRCRPPRLPRPRPRPGGRPRP, the “shrunken log2 fold change” value is 0.404. As for RRIRKRPPRLPRPRPRPQCIPRP, the figure is -0.149; as for RRIRQRPPRLPRPRPRPCFQPRP, -0.252.

For the sequence RRIRMRPPRLPRPRPRPELSPRP, the “shrunken log2 fold change” value stood at 0.0644. With RRIRSRPPRLPRPRPRPIMEPRP the figure was -0.182; with RRIRYRPPRLPRPRPRPVVCPRP, -0.408; with RRIRRRPPRLPRPRPRPYGMPRP, -0.242.
